Measured values published in paper PMC11813886, “Functional and structural characterization of mouse Factor H-related B protein unveils a novel dimerization domain shared by FHR-B and FH” (Frontiers in Immunology, 2025).

Target: the molecule itself
Experiment: AUC; sedimentation velocity, 48000 rpm, protein in PBS pH 7; c(s) distributions with SEDFIT; dimer to monomers

B1: human FHR-1 (natural protein, UniProt Q03591 19-330, looked up)
chain: EATFCDFPKINHGILYDEEKYKPFSQVPTGEVFYYSCEYNFVSPSKSFWTRITCTEEGWSPTPKCLRLCFFPFVENGHSESSGQTHLEGDTVQIICNTGYRLQNNENNISCVERGWSTPPKCRSTDTSCVNPPTVQNAHILSRQMSKYPSGERVRYECRSPYEMFGDEEVMCLNGNWTEPPQCKDSTGKCGPPPPIDNGDITSFPLSVYAPASSVEYQCQNLYQLEGNKRITCRNGQWSEPPKCLHPCVISREIMENYNIALRWTAKQKLYLRTGESAEFVCKRGYRLSSRSHTLRTTCWDGKLEYPTCAKR
notes: human factor H-related protein 1 (FHR-1); also called hFHR-1
With B1 the “stoichiometry N” value was 2.
